# Residue numbers refer to the chain shown, from its start. Names and notes keep the numbering of the source. Where two headings read alike, the source gives them in different places.
# T1: CodY (Bacillus subtilis, UniProt P39779)
# T1 sequence (P39779 1-259): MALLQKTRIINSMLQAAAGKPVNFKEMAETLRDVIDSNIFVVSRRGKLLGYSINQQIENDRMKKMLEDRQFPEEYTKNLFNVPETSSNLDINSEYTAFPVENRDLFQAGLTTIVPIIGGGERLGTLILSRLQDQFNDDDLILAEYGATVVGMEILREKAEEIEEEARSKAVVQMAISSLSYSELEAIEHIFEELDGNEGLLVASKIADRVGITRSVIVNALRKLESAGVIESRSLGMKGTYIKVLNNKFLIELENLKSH
# B1: A207D (protein, UniProt P39779 2-259, looked up, variant A207D)
# Global transcriptional …: ALLQKTRIINSMLQAAAGKPVNFKEMAETLRDVIDSNIFVVSRRGKLLGYSINQQIENDRMKKMLEDRQFPEEYTKNLFNVPETSSNLDINSEYTAFPVENRDLFQAGLTTIVPIIGGGERLGTLILSRLQDQFNDDDLILAEYGATVVGMEILREKAEEIEEEARSKAVVQMAISSLSYSELEAIEHIFEELDGNEGLLVASKIDDRVGITRSVIVNALRKLESAGVIESRSLGMKGTYIKVLNNKFLIELENLKSH
# B2: R214E (protein, UniProt P39779 2-259, looked up, variant R214E)
# Global transcriptional …: B1 Global transcriptional … with D206A, R213E
# B3: S215F (protein, UniProt P39779 2-259, looked up, variant S215F)
# Global transcriptional …: B1 Global transcriptional … with D206A, S214F
# B4: V218D (protein, UniProt P39779 2-259, looked up, variant V218D)
# Global transcriptional …: B1 Global transcriptional … with D206A, V217D
# B5: R214K (protein, UniProt P39779 2-259, looked up, variant R214K)
# Global transcriptional …: B1 Global transcriptional … with D206A, R213K
# B6: S215T (protein, UniProt P39779 2-259, looked up, variant S215T)
# Global transcriptional …: B1 Global transcriptional … with D206A, S214T
# B7: V218A (protein, UniProt P39779 2-259, looked up, variant V218A)
# Global transcriptional …: B1 Global transcriptional … with D206A, V217A
# B8: WT: wild-type B. subtilis CodY, a GTP-activated repressor protein (protein)
# chain: B1 Global transcriptional … with D206A
# Key:
# CodY [1] = molecular target: T1, CodY; test: Gel shift assay, stimulation of CodY binding to target DNA by effectors; parameters: species or system B. subtilis; conditions: for stimulation of CodY binding to new target genes and dpp promoter region: amino acids 10-30 mM
# Protocol: A test of whether BCAAs have any direct effect on CodY activity was performed. […] In all cases, the apparent dissociation constant for binding was substantially below the concentration of CodY inside the cell (4 μM, see below). […] By regulating gene expression in response to both the GTP level and the availability of certain amino acids, CodY can insure that the cell responds in a coherent way to many types of nutritional stress.
# The effects of GTP and BCAAs at different CodY targets can vary. At several target sites, BCAAs and GTP were each found to have small stimulatory effects on binding (in a gel shift assay), but the mixture strongly stimulates (FIG. 1). […] Some genes may respond to CodY in its GTP-bound conformation, other genes to CodY in its BCAA-bound conformation, and still other genes to CodY bound to both kinds of effectors. These variations could reflect differences in specificity of binding or differences in affinity of binding.
# The concentration dependence of stimulation of DNA binding by effectors is assessed. At the dpp promoter, GTP at 600 μM increased the fraction of DNA that was bound by a constant concentration of CodY (in a gel shift assay) from 10% to 50%. Titration assays of this type, using varying concentrations of GTP, isoleucine, and valine, provide a measure of the effective concentrations of each of these effectors.
# [2] = tested on: CodY (Staphylococcus aureus); test: EMSA; conditions: concentration giving shift; 2 mM GTP + 10 mM each Ile, Val, Leu
# wild-type cells = conditions: excess nutrients; cited from earlier work
# [3] = tested on: ilvB promoter lacZ fusions; conditions: GTP limitation by addition of decoyinine; cited from earlier work
# [4] = tested on: CodY A207D A207D (Bacillus subtilis); test: EMSA; conditions: GTP + ILV; also >500 without effectors
# CodY (Bacillus subtilis) = test: EMSA; conditions: 2 mM GTP + 10 mM each Ile, Leu, Val; 150 nM without effectors
# [5] = tested on: CodY R214E R214E (Bacillus subtilis); test: EMSA; conditions: GTP + ILV; also >500 without effectors
# [6] = tested on: CodY S215T S215T (Bacillus subtilis); test: EMSA
# CodY [7] = molecular target: T1, CodY; conditions: cited from earlier work
# CodY [8] = molecular target: T1, CodY; conditions: cited from earlier work; remark: listed apart in the source
# dpp promoter region = test: Gel mobility shift assay of CodY binding to the dpp promoter region; conditions: CodY concentration that shifted 50% of the DNA
# dpp-lacZ = dpp-lacZ expression in vivo (β-galactosidase); conditions: for β-galactosidase expression (Miller units) in mid-exponential cells: dpp-lacZ; for derepression of expression in vivo: versus wild type
# [9] = read-out: Estimated KD (nM), +GTP, ILV, GTP (2 mM) and isoleucine, valine and leucine (10 mM each)
# [10] = read-out: Estimated KD (nM), No effectors
molecule,measurement,setting,value
CC(C)C[C@H](N)C(=O)O [leucine],stimulation of CodY binding to new target genes and dpp promoter region,CodY [1],not
CC(C)[C@H](N)C(=O)O [valine],stimulation of CodY binding to new target genes and dpp promoter region,CodY [1],stimulated significantly
hla promoter region,binding,[2],160 nM
C=C1O[C@@](CO)(n2cnc3c(N)ncnc32)[C@H](O)[C@@H]1O [decoyinine],sporulation of wild-type cells,wild-type cells,failed to sporulate efficiently unless decoyinine was added
same,induction of ilvB-lacZ fusions with or without T-box,[3],induced both fusions
nuc promoter region,binding,[2],160 nM
dpp promoter region,Kd,[4],> 0.5 µM
same,Kd,CodY (Bacillus subtilis),0.02 µM
same,Kd,[5],> 0.5 µM
same,Kd,[6],> 0.5 µM
"Nc1nc2c(ncn2[C@@H]2O[C@H](COP(=O)(O)OP(=O)(O)OP(=O)(O)O)[C@@H](O)[C@H]2O)c(=O)[nH]1 [GTP, guanosine triphosphate]",fraction of DNA bound by a constant concentration of CodY,"CodY [1]; dpp promoter, GTP at 600 μM, 10% without",50%
same,effect on CodY binding at the yhdG regulatory region,"CodY [1]; yhdG regulatory region, alone or in combination",only a small effect
same,repression of dpp transcription by CodY,CodY [7]; 300 μM GTP (typical of early stationary phase cells),almost no repression
same,inhibition of dpp transcription by CodY,CodY [7]; 2 mM GTP,~80%
same,EC50,CodY [7]; read-out: GTP concentration giving 50% repression of transcription from the dpp promoter,~1500 µM
same,"binding to CodY compared with ATP, CTP or UTP",CodY [8],more avidly
CC[C@H](C)[C@H](N)C(=O)O [isoleucine],stimulation of CodY binding to new target genes and dpp promoter region,CodY [1],stimulated significantly
B1,Kd,dpp promoter region; [9],> 500 nM
same,Kd,dpp promoter region; [10],> 500 nM
same,derepression in vivo,dpp-lacZ,severe derepression
same,β-galactosidase expression (Miller units) in mid-exponential cells,dpp-lacZ,130 Miller units
B2,Kd,dpp promoter region; [9],> 500 nM
same,Kd,dpp promoter region; [10],> 500 nM
same,derepression in vivo,dpp-lacZ,severe derepression
same,β-galactosidase expression (Miller units) in mid-exponential cells,dpp-lacZ,94 Miller units
B3,Kd,dpp promoter region; [9],350 to 400 nM
same,derepression in vivo,dpp-lacZ,severe derepression
same,β-galactosidase expression (Miller units) in mid-exponential cells,dpp-lacZ,12 Miller units
B4,Kd,dpp promoter region; [9],150 to 200 nM
same,derepression in vivo,dpp-lacZ,severe derepression
same,β-galactosidase expression (Miller units) in mid-exponential cells,dpp-lacZ,14 Miller units
B5,derepression of expression in vivo,dpp-lacZ,2 fold
B6,Kd,dpp promoter region; [9],> 500 nM
same,β-galactosidase expression (Miller units) in mid-exponential cells,dpp-lacZ,150 Miller units
same,derepression of expression in vivo,dpp-lacZ,2 fold
B7,Kd,dpp promoter region; [9],100 to 200 nM
same,Kd,dpp promoter region; [10],250 to 500 nM
B8,Kd,dpp promoter region; [9],20 nM
same,Kd,dpp promoter region; [10],150 nM
same,β-galactosidase expression (Miller units) in mid-exponential cells,dpp-lacZ,6 Miller units
